PMC7145618
Read-outs that look alike come from different tables or passages of the source.

Assays:
[1] = molecular target: Drc (ssDNA-binding RNA Polymerase Cofactor), Pseudomonas virus LUZ7 gp14 (Pseudomonas virus LUZ7); assay: crystal structure
[2] = molecular target: Drc(Δ67–99) (Pseudomonas virus LUZ7); assay: SEC
Drc (gp14) [3] = molecular target: T1, Drc (gp14) (Pseudomonas phage LUZ7, UniProt C8ZKB3); assay: EMSA
T1 sequence: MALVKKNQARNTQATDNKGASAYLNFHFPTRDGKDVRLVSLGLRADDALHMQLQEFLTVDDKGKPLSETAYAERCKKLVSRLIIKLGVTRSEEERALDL

Drc (gp14) [4] = molecular target: T1, Drc (gp14); assay: EMSA; remark: listed apart in the source

“Drc (ssDNA-binding RNA Polymerase Cofactor), Pseudomonas virus LUZ7 gp14 (natural protein)” was tested, and the stoichiometry N [1] was 2.

Drc(Δ67–99) (domain or fragment) showed a stoichiometry N [2] of 2.

B1: internally melted duplex (dsDNA)
DNA 1: GGGCGGCGGTTTTTTTTTTGCGGGGCGG
DNA 2: CCGCCCCGCTTTTTTTTTTCCGCCGCCC
B1: binds (Drc (gp14) [3]).

TGAGTTTTTTTCATTTTTTGCGTAAATTTC (ssDNA) [30-nt ssDNA]: binds (Drc (gp14) [4]).
